T1: GPAA1, subunit of the human GPI transamidase (GPI-T) (human, UniProt O43292-1 2-621)
T1 construct: GPAA1, human, Genbank ID NP_003792.1; The 2×Flag tag follows the TGP tag; also called Gaa1p (yeast name); source: Expi293 cells co-transfected with five plasmids carrying all subunits; purified as the GPI-T complex (Strep-Tactin, Ni-NTA, gel filtration) in digitonin
T1 sequence: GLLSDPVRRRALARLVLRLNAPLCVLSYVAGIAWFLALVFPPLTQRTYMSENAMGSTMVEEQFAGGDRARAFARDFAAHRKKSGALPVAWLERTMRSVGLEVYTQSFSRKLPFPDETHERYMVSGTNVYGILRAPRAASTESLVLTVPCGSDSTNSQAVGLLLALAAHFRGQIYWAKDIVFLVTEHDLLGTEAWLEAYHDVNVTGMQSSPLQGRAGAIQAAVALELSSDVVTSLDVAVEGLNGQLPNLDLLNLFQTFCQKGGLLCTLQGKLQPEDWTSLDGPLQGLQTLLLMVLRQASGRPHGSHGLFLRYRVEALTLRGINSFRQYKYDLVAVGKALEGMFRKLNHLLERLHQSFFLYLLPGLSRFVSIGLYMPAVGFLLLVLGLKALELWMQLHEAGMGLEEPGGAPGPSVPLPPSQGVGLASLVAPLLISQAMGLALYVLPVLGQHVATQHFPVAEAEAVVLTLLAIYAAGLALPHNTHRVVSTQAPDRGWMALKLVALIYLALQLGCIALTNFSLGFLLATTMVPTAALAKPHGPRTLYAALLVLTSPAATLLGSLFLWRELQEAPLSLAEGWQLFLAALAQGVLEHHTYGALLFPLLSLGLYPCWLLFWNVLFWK

B1: PIGU, subunit of the human GPI transamidase (GPI-T) (natural protein)
chain: AAPLVLVLVVAVTVRAALFRSSLAEFISERVEVVSPLSSWKRVVEGLSLLDLGVSPYSGAVFHETPLIIYLFHFLIDYAELVFMITDALTAIALYFAIQDFNKVVFKKQKLLLELDQYAPDVAELIRTPMEMRYIPLKVALFYLLNPYTILSCVAKSTCAINNTLIAFFILTTIKGSAFLSAIFLALATYQSLYPLTLFVPGLLYLLQRQYIPVKMKSKAFWIFSWEYAMMYVGSLVVIICLSFFLLSSWDFIPAVYGFILSVPDLTPNIGLFWYFFAEMFEHFSLFFVCVFQINVFFYTIPLAIKLKEHPIFFMFIQIAVIAIFKSYPTVGDVALYMAFFPVWNHLYRFLRNIFVLTCIIIVCSLLFPVLWHLWIYAGSANSNFFYAITLTFNVGQILLISDYFYAFLRREYYLTHGLYLTAKDGTEAMLVLK
notes: PIGU, human, Genbank ID NP_536724.1; gene assembled from overlapping oligonucleotides; also called Gab1p (yeast name); source: Expi293 cells co-transfected with five plasmids carrying all subunits; purified as the GPI-T complex (Strep-Tactin, Ni-NTA, gel filtration) in digitonin; not shown: Strep, C-terminal, kept
B2: PIGT, subunit of the human GPI transamidase (GPI-T) (natural protein)
chain: LAEPPRDSLREELVITPLPSGDVAATFQFRTRWDSELQREGVSHYRLFPKALGQLISKYSLRELHLSFTQGFWRTRYWGPPFLQAPSGAELWVWFQDTVTDVDKSWKELSNVLSGIFCASLNFIDSTNTVTPTASFKPLGLANDTDHYFLRYAVLPREVVCTENLTPWKKLLPCSSKAGLSVLLKADRLFHTSYHSQAVHIRPVCRNARCTSISWELRQTLSVVFDAFITGQGKKDWSLFRMFSRTLTEPCPLASESRVYVDITTYNQDNETLEVHPPPTTTYQDVILGTRKTYAIYDLLDTAMINNSRNLNIQLKWKRPPENEAPPVPFLHAQRYVSGYGLQKGELSTLLYNTHPYRAFPVLLLDTVPWYLRLYVHTLTITSKGKENKPSYIHYQPAQDRLQPHLLEMLIQLPANSVTKVSIQFERALLKWTEYTPDPNHGFYVSPSVLSALVPSMVAAKPVDWEESPLFNSLFPVSDGSNYFVRLYTEPLLVNLPTPDFSMPYNVICLTCTVVAVCYGSFYNLLTRTFHIEEPRTGGLAKRLANLIRRARGVPPL
modifications: disulfide bond from C182 to PIGK C92
notes: PIGT, human, Genbank ID NP_057021.2; also called Gpi16p (yeast name); source: Expi293 cells co-transfected with five plasmids carrying all subunits; purified as the GPI-T complex (Strep-Tactin, Ni-NTA, gel filtration) in digitonin; not shown: 9×His, C-terminal, kept
B3: PIGS, subunit of the human GPI transamidase (GPI-T) (natural protein)
chain: AAAGAAATHLEVARGKRAALFFAAVAIVLGLPLWWKTTETYRASLPYSQISGLNALQLRLMVPVTVVFTRESVPLDDQEKLPFTVVHEREIPLKYKMKIKCRFQKAYRRALDHEEEALSSGSVQEAEAMLDEPQEQAEGSLTVYVISEHSSLLPQDMMSYIGPKRTAVVRGIMHREAFNIIGRRIVQVAQAMSLTEDVLAAALADHLPEDKWSAEKRRPLKSSLGYEITFSLLNPDPKSHDVYWDIEGAVRRYVQPFLNALGAAGNFSVDSQILYYAMLGVNPRFDSASSSYYLDMHSLPHVINPVESRLGSSAASLYPVLNFLLYVPELAHSPLYIQDKDGAPVATNAFHSPRWGGIMVYNVDSKTYNASVLPVRVEVDMVRVMEVFLAQLRLLFGIAQPQLPPKCLLSGPTSEGLMTWELDRLLWARSVENLATATTTLTSLAQLLGKISNIVIKDDVASEVYKAVAAVQKSAEELASGHLASAFVASQEAVTSSELAFFDPSLLHLLYFPDDQKFAIYIPLFLPMAVPILLSLVKIFLETRKSWRKPEKTD
notes: PIGS, human, Genbank ID NP_149975.1; The Myc tag follows the TGP tag; also called Gpi17p (yeast name); source: Expi293 cells co-transfected with five plasmids carrying all subunits; purified as the GPI-T complex (Strep-Tactin, Ni-NTA, gel filtration) in digitonin

How the values were obtained:
Assay in all cases: cryo-EM structure; single-particle cryo-EM of the purified GPI-T complex in 0.1% digitonin, 150 mM NaCl, 20 mM Tris HCl pH 8.0; 2.53 Å; five subunits with 1:1 stoichiometry
Details in all cases: both partners purified
[1] = target: B3
[2] = target: B2
[3] = target: T1, GPAA1, subunit of the human GPI …
[4] = target: B1

binding result [2] | binding result [3] | Binder | binding result [1] | binding result [4]
binds | binds | B1 | binds | 
 | binds | B2 |  | 
binds |  | B3 |  | 

Binder | binding result [2] | binding result [3] | binding result [1] | binding result [4]
PIGK, subunit of the human GPI transamidase (GPI-T) (enzyme, disulfide bond from C92 to PIGT C182, PIGK, human, Genbank ID NP_005473.1; The HA tag follows the TGP tag; also called Gpi8p (yeast name); source: Expi293 cells co-transfected with five plasmids carrying all subunits; purified as the GPI-T complex (Strep-Tactin, Ni-NTA, gel filtration) in digitonin) SHIEDQAEQFFRSGHTNNWAVLVCTSRFWFNYRHVANTLSVYRSVKRLGIPDSHIVLMLADDMACNPRNPKPATVFSHKNMELNVYGDDVEVDYRSYEVTVENFLRVLTGRIPPSTPRSKRLLSDDRSNILIYMTGHGGNGFLKFQDSEEITNIELADAFEQMWQKRRYNELLFIIDTCQGASMYERFYSPNIMALASSQVGEDSLSHQPDPAIGVHLMDRYTFYVLEFLEEINPASQTNMNDLFQVCPKSLCVSTPGHRTDLFQRDPKNVLITDFFGSVRKVEITTETIKLQQDSEIMESSYKEDQMDEKLMEPLKYAEQLPVAQIIHQKPKLKDWHPPGGFILGLWALIIMVFFKTYGIKHMKFIF | binds |  | binds | binds

Reference: publication PMC9098846, “Molecular insights into biogenesis of glycosylphosphatidylinositol anchor proteins” (Nature Communications, 2022)
